Holding throughout (conditions): tags: recombinant human FVII produced in transgenic rabbit milk (FVII-TG)
The target in data set [1] is T1, Factor VII (FVII/FVIIa, active Gla domain) (Homo sapiens, UniProt P08709;P08709 P08709:61-212,P08709:213-466). As to the kind of experiment: affinity chromatography; 95% of FVII retained and eluted with EDTA (coupling pH 4.2); loading capacity 5.4 mg FVII/ml gel at 5.8 mg/ml aptamer; 50 mM Tris, 10 mM CaCl2, pH 7.5. The protocol:
(§1) The loading capacity (or in other words the retention capacity) of the affinity supports, expressed in mg of FVII per ml of gel, was evaluated by injection of a composition of recombinant human FVII in “Tp5” buffer (50 mM Tris, 10 mM CaCl₂, pH 7.5).
(§2) Table 3 below gives the loading capacity of the affinity supports as a function of the number of aptamers grafted at their surface.

Data set [2] has as its target T1, Factor VII (FVII/FVIIa, active Gla …). As to the kind of experiment: affinity chromatography; loading capacity 8.0 mg FVII/ml gel at 5.6 mg/ml aptamer; FVIIam yield in eluate 76.8%; Tris, 10 mM CaCl2, EDTA elution. The protocol:
as §1, §2

Data set [3] has the same target. Description: affinity chromatography; FVIIam yield in eluate 73.8%, 1.1% not retained; 50 mM Tris, 10 mM CaCl2, 4 mM MgCl2, pH 7.5; EDTA elution.

B1: Mapt 2CS-PEG(C11) (oligo5) (ssDNA)
DNA: ATGCAGCCAGCCGCAGTGTAAGTGAATGCAGACATGGTCTAAGTG
modifications: 5' amine hydrophilic C11 spacer (11-amino-3,6,9-trioxaundecan-1-yl), grafted on NHS-activated Sepharose 4 FF
Take B1: the binding result in data set [1] was “binds”.

B2: Mapt 2.2CS-PEG(C11) (ssDNA)
DNA: CCGCACGCTACGCGCATGAACCCGCGCACACGACTTGAAGTAGC
modifications: 5' amine hydrophilic C11 spacer (11-amino-3,6,9-trioxaundecan-1-yl), grafted on NHS-activated Sepharose 4 FF
As to B2, the binding result in data set [2] is “binds”. As for CCGCACGCTACGCGCATGAACCCGCGCACACGACTTGAAGTAGC (ssDNA, 5' amine C6 spacer, grafted on NHS-activated Sepharose 4 FF) [Mapt 2.2CS C6], the binding result in data set [3] is “binds”.

For the origin of these results see patent US20130344567, “METHOD FOR IMMOBILISING NUCLEIC LIGANDS” (LFB Biotechnologies, published 2013).
